Substitutions are numbered along the chain they refer to. Each block holds one binder with its values, some of them ahead of it.
Assays:
[1] = target: T1, human full-length CD33 (CD33^FL) on cells (human, UniProt P20138 18-364); experiment: flow cytometry, murine antibody, control = secondary antibody only; REH cells expressing CD33FL
T1 construct: Used for engineered REH/ML-1 sublines overexpressing CD33^FL and for endogenous CD33 on parental AML cell lines; also called Siglec-3

[2] = target: T2, artificial CD33 with deletion of exons 3 and 4, lacking the C2-set domain (CD33^ΔE3-4), on cells (human, UniProt P20138 1-364); experiment: flow cytometry on engineered cells
T2 construct: it probably still carries the CD33 signal peptide (aa 1-17), which is not part of the protein on cells; also called CD33 V-set construct (exon 3 and 4 deleted)

[3] = target: T3, purified extracellular domain of human CD33^FL with C-terminal His and Avi tags (human, UniProt P20138 18-259); experiment: SPR, Biacore T100, 25 C; 1H7 captured on anti-mouse IgG, purified CD33^FL ectodomain as analyte; target CD33^FL (full-length ectodomain)
T3 construct: also called CD33^FL ectodomain; CD33^FL antigen; not shown: C-terminal His and Avi tags
Description: (§1) FIG. 9. SPR assessment of purified extracellular domains from CD33^FL or CD33^ΔE2 binding to captured 1H7. Black lines are data and gray lines are the model fits. SPR experiments were performed at 25° C. on a Biacore T100 (Cytiva) using a running buffer of 10 mM HEPES, pH 7.4, 150 mM NaCl, 3 mM EDTA, 0.05% surfactant P20 with 0.1 mg/mL bovine serum albumin. Rabbit anti-mouse IgG was amine coupled to 2 flow cells of a Series S CM5 chip (7300 RUs). 1H7 at 0.2 μg/mL was injected at 10 μL/min over 1 flow cell of immobilized anti-mouse IgG for either 2 mins or 5 mins to capture 94 or 163 RUs of antibody for the CD33^FL and CD33^ΔE2 binding experiments, respectively. Purified ectodomains for CD33^FL and CD33^ΔE2 (engineered with C-terminal His and Avi tags) were run as concentration series at 35 μL/min over both the captured antibody and anti-mouse IgG alone (reference) surfaces. CD33^FL was injected for 10 mins and allowed to dissociate for 15 mins. CD33^ΔE2 was injected for 7 mins and dissociated for 7 mins. Ectodomain concentrations (serial 2-fold dilutions starting at 75 nM for CD33^FL and 2 μM for CD33^ΔE2) were run in duplicate, randomized, and included a buffer blank every 4th injection. The CM5 chip was regenerated with 10 mM glycine, pH 1.7 for 3 minutes at 20 μL/min and 1H7 recaptured prior to each CD33 injection. Data was double referenced and analyzed in BiaEval 2.0.4.

[4] = target: T4, purified extracellular domain of human CD33^ΔE2 with C-terminal His and Avi tags (human, UniProt P20138 18-259); experiment: SPR, Biacore T100, 25 C; 1H7 captured on anti-mouse IgG, purified CD33^ΔE2 ectodomain as analyte; target CD33^ΔE2 (lacking V-set domain)
T4 construct: extracellular domain; also called CD33^ΔE2 ectodomain; not shown: C-terminal His and Avi tags
Description: as §1

[5] = target: T3, purified extracellular domain of human …; experiment: SPR (Carterra), antibody captured on a protein A/G lawn, CD33FL antigen in solution; column 'CD33FL kD (nM), 1 µg/mL' (purified antibody)
Source text: (§2) FIG. 8. A kinetic profile was established from purified anti-CD33 antibodies and hybridoma supernatants by use of surface plasmon resonance technology (SPR) from the Carterra instrument. SPR is a great way to estimate the kinetic rate constants of binding interactions, of which can fit to a 1:1 Langmuir binding model to determine the on-rate (Kₒₙ) and off-rate (Koff). Both of these rate parameters allow for the calculation of the dissociation rate constant (Kd), referred to as binding affinity. The antibody clones were captured as an array on a protein A/G lawn, which was immobilized to a HC30M chip. The first kinetic experiment used a CD33^FL antigen which started at a concentration of 2 μM preceding a 4-fold titration to 2 nM. Following 10 HBSTE buffer blanks, 6 injections from low to high concentrations were subsequently flowed over the array to assess kinetics of each clone printed to the array, 1-min baseline, 5-min association, 10-min dissociation. The chip was then regenerated with 0.85% phosphoric acid pH 1.7 for a fresh reprint of the same array of clones to the protein A/G lawn, in case any lingering antigen stayed bound to the array preventing an interaction with the 2nd antigen of interest, of which CD33^ΔE2 flowed over the array of antibodies. Carterra kinetic software was used to process the data to fit the raw data to kinetic curves for each concentration of antigen injected over the array.

[6] = target: T3, purified extracellular domain of human …; experiment: SPR (Carterra), antibody captured on a protein A/G lawn, CD33FL antigen in solution; column 'CD33FL kD (nM), 4 µg/mL' (purified antibody)
Source text: as §2

[7] = target: T4, purified extracellular domain of human …; experiment: SPR (Carterra), antibody captured on a protein A/G lawn, CD33ΔE2 antigen in solution; column 'CD33ΔE2 kD (nM), 1 µg/mL' (purified antibody)
Source text: as §2, with “Carterra kinetic software was used to process the data to fit the raw data to kinetic curves for each concentration of antigen injected over the array.” left out

[8] = target: T4, purified extracellular domain of human …; experiment: SPR (Carterra), antibody captured on a protein A/G lawn, CD33ΔE2 antigen in solution; column 'CD33ΔE2 kD (nM), 4 µg/mL' (purified antibody)
Source text: as §2, with “Carterra kinetic software was used to process the data to fit the raw data to kinetic curves for each concentration of antigen injected over the array.” left out

[9] = target: T1, human full-length CD33 (CD33^FL) on …; experiment: flow cytometry, murine antibody, control = secondary antibody only; ML-1 parental cells (endogenous CD33) and REH cells expressing CD33FL
[10] = target: T1, human full-length CD33 (CD33^FL) on …; experiment: flow cytometry, murine antibody, control = secondary antibody only; REH cells expressing CD33FL; remark: listed apart in the source
[11] = target: T3, purified extracellular domain of human …; experiment: SPR (Biacore); column 'CD33FL Biacore kD (nM)'
[12] = target: T4, purified extracellular domain of human …; experiment: SPR (Carterra), antibody or hybridoma supernatant captured on a protein A/G lawn, CD33ΔE2 antigen in solution
Source text: as §2, with “Carterra kinetic software was used to process the data to fit the raw data to kinetic curves for each concentration of antigen injected over the array.” left out

T1 sequence (P20138 18-364): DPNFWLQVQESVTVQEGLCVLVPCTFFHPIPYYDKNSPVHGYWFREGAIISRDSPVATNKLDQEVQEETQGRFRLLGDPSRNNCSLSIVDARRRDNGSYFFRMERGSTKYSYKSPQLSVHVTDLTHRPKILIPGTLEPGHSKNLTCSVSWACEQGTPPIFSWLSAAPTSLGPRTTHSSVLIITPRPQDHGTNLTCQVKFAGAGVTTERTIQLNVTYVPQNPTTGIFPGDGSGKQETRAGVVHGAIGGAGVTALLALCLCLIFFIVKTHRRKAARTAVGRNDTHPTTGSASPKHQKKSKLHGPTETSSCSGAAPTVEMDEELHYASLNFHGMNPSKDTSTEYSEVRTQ
T3 sequence (P20138 18-259): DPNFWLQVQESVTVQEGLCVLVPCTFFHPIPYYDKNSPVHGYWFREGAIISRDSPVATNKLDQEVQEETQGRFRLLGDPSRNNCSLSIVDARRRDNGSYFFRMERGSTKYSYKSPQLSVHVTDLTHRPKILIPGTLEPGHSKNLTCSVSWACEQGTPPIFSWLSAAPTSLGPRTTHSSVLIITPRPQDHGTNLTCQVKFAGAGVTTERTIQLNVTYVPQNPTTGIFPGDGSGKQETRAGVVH
T4 sequence (P20138 140-259 limits assumed, stated change not applied): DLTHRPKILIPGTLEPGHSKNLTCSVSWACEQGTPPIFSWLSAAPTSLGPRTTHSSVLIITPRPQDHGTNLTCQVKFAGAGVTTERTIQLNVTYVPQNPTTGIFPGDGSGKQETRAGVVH
T2 sequence (P20138 other isoform, or with tags, fused parts or gaps mutant limits assumed): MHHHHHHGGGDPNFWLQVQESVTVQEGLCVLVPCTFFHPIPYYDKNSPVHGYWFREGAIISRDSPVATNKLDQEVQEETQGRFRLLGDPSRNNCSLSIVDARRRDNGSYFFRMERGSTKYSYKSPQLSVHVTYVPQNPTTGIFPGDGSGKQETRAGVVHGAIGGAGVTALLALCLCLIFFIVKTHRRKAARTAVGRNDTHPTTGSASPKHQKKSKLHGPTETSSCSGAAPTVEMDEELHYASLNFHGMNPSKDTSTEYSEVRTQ

binding result [1]: binds
B1: 2D5 antibody (murine CD33^PAN antibody) (antibody, V domains shown)
VH: QVQLQQSGAELVRPGASVTLSCKASGYTFTDYDMHWVKQTPVHGLEWIGAIDPETGGTAYNQNFKGKAILTVDKSSRIAYMELRSLTSEDSAVFYCTSDYDYFGVWGTGTTVTVSS
VL: DIVMTQSQKFMSTSVGDRVSVTCKASQNVGTNVVWYHKKPGQSPKGLIYSASDRYSGVPDRFTGSGSGTDFTLTINNVQSEDLAEYFCQQYNIYPYTFGGGTKLEIK
notes: Murine hybridoma antibody

binding result [2]: no binding | Kd [3]: 5.35 nM | Kd [4]: 280 nM | Kd [5]: 0.674 nM | Kd [6]: 4.2 nM | Kd [7]: 5.3 nM | Kd [8]: 7.6 nM
B2: 1H7 antibody (murine CD33^PAN antibody, hybridoma clone and recombinant 1H7) (antibody, V domains shown)
VH: QVQLQQSGAELVKPGASVKISCKASGYAFSNYWMNWVKQRPGKGLEWIGQINPGDGDTNYNGKFKGKATLTADKSSSTAYMQLSSLTSEDSAVYFCAREDRDYFDYWGQGTTLTVSS
VL: DIQMTQTTSSLSASLGDRVTISCRASQDINYYLNWYQQKPDGTVKLLIYYSSRLHSGVPSRFSGSGSGTDFSLTISNLEQEDIATYFCQQDDALPYTFGGGTKLEIK
notes: Murine antibody (captured on anti-mouse IgG in the Biacore run); both are treated as one molecule; also called clone 1H7

binding result [9]: binds
B3: 9G2 antibody (murine CD33^PAN antibody) (antibody, V domains shown)
VH: EVKLVESEGGLVQPGSSMKLSCTASGFTFSDYYMSWVRQVPEKGLEWVASINYDGGSTYYLDSLKSRFIISRDNTKNILYLQMSSLKSEDTATYYCARDRGDGDYFDYWGQGTTLTVSS
VL: B2 VL with R24K, A25T, N30Y, Y31N, S51T, S65G, F71Y, D91G, A93T, Y96W
notes: Murine hybridoma antibody

binding result [9]: binds
B4: 6H9 antibody (murine CD33^PAN antibody) (antibody, V domains shown)
VH: EVMLVESGGGLVKPGGSLKLSCAASGFTFSSYTMSWVRQTPEKRLEWVATISGDGGNTYYSDSVKGRFTISRDNAKNTLYLQMSSLRSEDTALYYCARQGTGTDYFDYWGQGTTLTVS
VL: B2 VL with Y31I, S51T, F71Y, D91G, A93T, Y96W
notes: Murine hybridoma antibody

binding result [10]: no binding
B5: 13E11 (antibody, V domains shown)
VH: KVQLQQSGAELVKPGASVKLSCKASGYTFTDYTLHWLKQRSGQGLEWIGWFYPTSGSINYNERFKDKATLTADKSSSTVYMELSRLTSVDSAVYFCARHKFGFDYWGQGTTLTVSS
VL: DIVLTQSPVSLAVSLGQRATISCKASHGVEYAGAHYMNWYQQKPGQPPKLLIYAASNLGSGIPPRFSGSGSGTDFTLNIHPVEEEDSATYYCQQSNEDPRTFGGGTKLEIK
notes: also called 13E11 antibody; murine CD33^C2-set-specific antibody, clone 13E11

Kd [11]: 0.122 nM | binding result [12]: no binding | Kd [5]: 2.3 nM | Kd [6]: 1.1 nM
B6: 5D12 antibody (murine CD33^V-set antibody) (antibody, V domains shown)
VH: QVQLQQSGAEVVKPGASVKISCRASGYAFSNYWMNWVKQRPGKGLEWIGQIYPGNFNTDYNGQFKGKATLTVDKSSNTAYMQLSSLTSEDSAVYFCARFFDFGAYFTLDYWGQGTSVTVSS
VL: DIKMTQSPSSIYASLGERVTINCKASQDIKSYLSWYQQKPWKSPKTLIYYATTLADGVPSRFSGSGSGQDYSLTISSLESDDTATYYCLHHGESPWTFGEGTKLEIK
notes: Murine hybridoma antibody

Kd [11]: 8 nM | binding result [12]: no binding | Kd [5]: 11 nM | Kd [6]: 6.1 nM
B7: 8F5 antibody (murine CD33^V-set antibody) (antibody, V domains shown)
VH: EVKLVESGGGLVQPGGSLKLSCAASGFTFSDFYMYWVRQTPEKRLEWVAFISNAGVTTYYPDTVEGRFTISRDNAKNTLYLQMSRLMSEDTAMYYCTKSDYDGAWFPYWGQGTLVTVS
VL: DIVMSQSPSSLPVSVGEKVTLSCKSSQSLLYSRNQYNFLAWYQQRPGQSPKLLIYWASTRESGVPDRFTGSGSGTDFTLTISSVKAEDLAVYYCQQYYSYPYTFGGGTKLEIK
notes: Murine hybridoma antibody

— patent US20230190810A1 (FRED HUTCHINSON CANCER CENTER, published 2023)
